Data published in US20200102373A1.

Molecular target: biotin-labeled HA peptide
Experiment: SPR (OpenSPR), biotin-labeled HA peptide on a Streptavidin chip, purified FB-GFP in solution, one-to-one model, two independent experiments

Work on “purified recombinant HA frankenbody fused with mEGFP and a hexahistidine tag (purified FB-GFP, from E. coli) (scFv)” yielded a Kd of 14.7 nM.
